Source: patent publication US20060159695A1
Blank lines part the entries; values can stand above or below the substance they belong to.

What was measured:
[1] = target: RSV F protein (A2 strain) G438A (human RSV, A2 strain) (UniProt P03420); experiment: cell ELISA, 293T cells expressing F
[2] = target: RSV F protein (A2 strain) C422S (human RSV, A2 strain) (UniProt P03420); experiment: cell ELISA, 293T cells expressing F
[3] = target: RSV F protein (A2 strain) D486N (human RSV, A2 strain) (UniProt P03420); experiment: cell ELISA, 293T cells expressing F
[4] = target: RSV F protein (A2 strain) F435Y (human RSV, A2 strain) (UniProt P03420); experiment: cell ELISA, 293T cells expressing F
[5] = target: RSV F protein (A2 strain) F483L (human RSV, A2 strain) (UniProt P03420); experiment: cell ELISA, 293T cells expressing F
[6] = target: RSV F protein (A2 strain) F483Y (human RSV, A2 strain) (UniProt P03420); experiment: cell ELISA, 293T cells expressing F
[7] = target: RSV F protein (A2 strain) F488L (human RSV, A2 strain) (UniProt P03420); experiment: cell ELISA, 293T cells expressing F
[8] = target: RSV F protein (A2 strain) F488Y (human RSV, A2 strain) (UniProt P03420); experiment: cell ELISA, 293T cells expressing F
[9] = target: RSV F protein (A2 strain) G430A (human RSV, A2 strain) (UniProt P03420); experiment: cell ELISA, 293T cells expressing F
[10] = target: RSV F protein (A2 strain) I431A (human RSV, A2 strain) (UniProt P03420); experiment: cell ELISA, 293T cells expressing F
[11] = target: RSV F protein (A2 strain) I431L (human RSV, A2 strain) (UniProt P03420); experiment: cell ELISA, 293T cells expressing F
[12] = target: RSV F protein (A2 strain) I432L (human RSV, A2 strain) (UniProt P03420); experiment: cell ELISA, 293T cells expressing F
[13] = target: RSV F protein (A2 strain) I432Q (human RSV, A2 strain) (UniProt P03420); experiment: cell ELISA, 293T cells expressing F
[14] = target: RSV F protein (A2 strain) I432T (human RSV, A2 strain) (UniProt P03420); experiment: cell ELISA, 293T cells expressing F
[15] = target: RSV F protein (A2 strain) K272M (human RSV, A2 strain) (UniProt P03420); experiment: cell ELISA, 293T cells expressing F
[16] = target: RSV F protein (A2 strain) K272N (human RSV, A2 strain) (UniProt P03420); experiment: cell ELISA, 293T cells expressing F
[17] = target: RSV F protein (A2 strain) K272Q (human RSV, A2 strain) (UniProt P03420); experiment: cell ELISA, 293T cells expressing F
[18] = target: RSV F protein (A2 strain) K272T (human RSV, A2 strain) (UniProt P03420); experiment: cell ELISA, 293T cells expressing F
[19] = target: RSV F protein (A2 strain) K427D (human RSV, A2 strain) (UniProt P03420); experiment: cell ELISA, 293T cells expressing F
[20] = target: RSV F protein (A2 strain) K427E (human RSV, A2 strain) (UniProt P03420); experiment: cell ELISA, 293T cells expressing F
[21] = target: RSV F protein (A2 strain) K427Q (human RSV, A2 strain) (UniProt P03420); experiment: cell ELISA, 293T cells expressing F
[22] = target: RSV F protein (A2 strain) K433D (human RSV, A2 strain) (UniProt P03420); experiment: cell ELISA, 293T cells expressing F
[23] = target: RSV F protein (A2 strain) K433L (human RSV, A2 strain) (UniProt P03420); experiment: cell ELISA, 293T cells expressing F
[24] = target: RSV F protein (A2 strain) K433N (human RSV, A2 strain) (UniProt P03420); experiment: cell ELISA, 293T cells expressing F
[25] = target: RSV F protein (A2 strain) K433Q (human RSV, A2 strain) (UniProt P03420); experiment: cell ELISA, 293T cells expressing F
[26] = target: RSV F protein (A2 strain) K433R (human RSV, A2 strain) (UniProt P03420); experiment: cell ELISA, 293T cells expressing F
[27] = target: RSV F protein (A2 strain) K433S (human RSV, A2 strain) (UniProt P03420); experiment: cell ELISA, 293T cells expressing F
[28] = target: RSV F protein (A2 strain) K433T (human RSV, A2 strain) (UniProt P03420); experiment: cell ELISA, 293T cells expressing F
[29] = target: RSV F protein (A2 strain) N428D (human RSV, A2 strain) (UniProt P03420); experiment: cell ELISA, 293T cells expressing F
[30] = target: RSV F protein (A2 strain) N428Q (human RSV, A2 strain) (UniProt P03420); experiment: cell ELISA, 293T cells expressing F
[31] = target: RSV F protein (A2 strain) N437D (human RSV, A2 strain) (UniProt P03420); experiment: cell ELISA, 293T cells expressing F
[32] = target: RSV F protein (A2 strain) R429K (human RSV, A2 strain) (UniProt P03420); experiment: cell ELISA, 293T cells expressing F
[33] = target: RSV F protein (A2 strain) R429S (human RSV, A2 strain) (UniProt P03420); experiment: cell ELISA, 293T cells expressing F
[34] = target: RSV F protein (A2 strain) S275F (human RSV, A2 strain) (UniProt P03420); experiment: cell ELISA, 293T cells expressing F
[35] = target: RSV F protein (A2 strain) S436F (human RSV, A2 strain) (UniProt P03420); experiment: cell ELISA, 293T cells expressing F
[36] = target: RSV F protein (A2 strain) S436T (human RSV, A2 strain) (UniProt P03420); experiment: cell ELISA, 293T cells expressing F
[37] = target: RSV F protein (A2 strain) T400A (human RSV, A2 strain) (UniProt P03420); experiment: cell ELISA, 293T cells expressing F
[38] = target: RSV F protein (A2 strain) T434S (human RSV, A2 strain) (UniProt P03420); experiment: cell ELISA, 293T cells expressing F
[39] = target: RSV F protein (A2 strain) V447A (human RSV, A2 strain) (UniProt P03420); experiment: cell ELISA, 293T cells expressing F
[40] = target: Wild-type RSV F protein (subgroup A, A2 strain) (human RSV, A2 strain) (UniProt P03420); experiment: cell ELISA, 293T cells expressing F
[41] = target: Wild-type RSV F protein (subgroup B, 18537 strain) (human RSV, 18537 strain) (UniProt P13843); experiment: cell ELISA, 293T cells expressing F
[42] = target: RSV F protein on human RSV virus (Long strain) (human RSV, Long strain) (UniProt P12568); experiment: cell-based or functional assay
[43] = target: soluble, extracellular domain of recombinantly expressed RSV F protein (human RSV); experiment: SPR (BIAcore 3000), F protein amine-coupled to CM5 chip

Substance: chimeric 101F mAb (antibody)
% mAb binding relative to wild-type [1]: 9.2%

Substance: mAb19 (antibody)
% mAb binding relative to wild-type [2]: 194% | % mAb binding relative to wild-type [3]: 30.7% | % mAb binding relative to wild-type [4]: 9.2% | % mAb binding relative to wild-type [5]: 101% | % mAb binding relative to wild-type [6]: 141% | % mAb binding relative to wild-type [7]: 40% | % mAb binding relative to wild-type [8]: 56% | % mAb binding relative to wild-type [9]: 0.15% | % mAb binding relative to wild-type [1]: 19% | % mAb binding relative to wild-type [10]: 81.8% | % mAb binding relative to wild-type [11]: 65.5% | % mAb binding relative to wild-type [12]: 64.4% | % mAb binding relative to wild-type [13]: 57.9% | % mAb binding relative to wild-type [14]: 170% | % mAb binding relative to wild-type [15]: 100% | % mAb binding relative to wild-type [16]: 62.3% | % mAb binding relative to wild-type [17]: 88.7% | % mAb binding relative to wild-type [18]: 68% | % mAb binding relative to wild-type [19]: -12.7% | % mAb binding relative to wild-type [20]: 68.7% | % mAb binding relative to wild-type [21]: 155% | % mAb binding relative to wild-type [22]: 1.6% | % mAb binding relative to wild-type [23]: 24.5% | % mAb binding relative to wild-type [24]: 28.7% | % mAb binding relative to wild-type [25]: 47.4% | % mAb binding relative to wild-type [26]: 23.1% | % mAb binding relative to wild-type [27]: 112% | % mAb binding relative to wild-type [28]: 64.4% | % mAb binding relative to wild-type [29]: 121% | % mAb binding relative to wild-type [30]: 194% | % mAb binding relative to wild-type [31]: 33.2% | % mAb binding relative to wild-type [32]: 11.2% | % mAb binding relative to wild-type [33]: 3.9% | % mAb binding relative to wild-type [34]: 31.7% | % mAb binding relative to wild-type [35]: 163% | % mAb binding relative to wild-type [36]: 85.8% | % mAb binding relative to wild-type [37]: 161% | % mAb binding relative to wild-type [38]: 84.9% | % mAb binding relative to wild-type [39]: 62.7% | % mAb binding relative to wild-type [40]: 99.9% | % mAb binding relative to wild-type [41]: 105%

Substance: palivizumab (antibody)
RSV neutralization IC50 (Palivizumab) [42]: 0.1 µg/mL | Kd [43]: 1.1 nM

RSV neutralization IC50 (Palivizumab Fab) [42]: 3.2 µg/mL | Kd [43]: 1.5 nM | koff [43]: 0.0011 s⁻¹ | kon [43]: 720000 M⁻¹ s⁻¹
Substance: palivizumab Fab
